# Data taken from article PMC11218510, “Functional analysis of the methylerythritol phosphate pathway terminal enzymes IspG and IspH from Zymomonas mobilis” (Microbiology Spectrum, 2024).
# Molecular target: the molecule itself
# Assay: native gel or EMSA; 4%-16% Bis-Tris Native gel; 50 μM IspG, 50 μM IspH and a mixture of 25 μM each
protein,measurement,value
"Z. mobilis Strep-tag II IspG (enzyme, UniProt Q5NR50 1-377, looked up, IspG of Zymomonas mobilis ZM4; coding region amplified from genomic DNA; carries a [4Fe-4S] cluster (occupancy 5-10%); also called Z. mobilis IspG; ispGZM; source: E. coli PK13681 (BL21 (DE3) derivative) with pPK13651 (pET11a), purified anaerobically (Streptrap HP, PD-10 desalting); not shown: Strep-tag II, C-terminal, kept) MSIRPWRHIERRKSRKIMVGNVAVGGDAPISVQTMTNTPTVDAQATIAQIKRCEAVGVDLIRVSCPDKESTAALKDIVRAAEVPIIADIHFHYKRALEAADAGAACLRINPGNIGSSERVAEVVRAAKANGCAIRIGVNAGSLEKELLEKYGEPCPDALVESALNHIKLLQDQDFHEFKVAVKASDVFLAVASYKALAKAVDCPLHLGITEAGGLIGGTVKSALGIGNLLWDGIGDTLRVSLSADPEQEVRVGYDILKTLDLRTRGVRVVSCPSCARQGFDVVKTVKALEERLAHIATPISLSILGCVVNGPGEARETDIGVTGGGQGKHMVFLSGVTDHTVEDAKMLDHIVSLVEAKAAEIEAEKAKEKAATVAAE",stoichiometry N,2
